# Measured values as given in PMC12559092 (2025).
# T1: VEGFR-2-Fc domain 1&2&3 (Homo sapiens, UniProt P35968)
# T1 chain: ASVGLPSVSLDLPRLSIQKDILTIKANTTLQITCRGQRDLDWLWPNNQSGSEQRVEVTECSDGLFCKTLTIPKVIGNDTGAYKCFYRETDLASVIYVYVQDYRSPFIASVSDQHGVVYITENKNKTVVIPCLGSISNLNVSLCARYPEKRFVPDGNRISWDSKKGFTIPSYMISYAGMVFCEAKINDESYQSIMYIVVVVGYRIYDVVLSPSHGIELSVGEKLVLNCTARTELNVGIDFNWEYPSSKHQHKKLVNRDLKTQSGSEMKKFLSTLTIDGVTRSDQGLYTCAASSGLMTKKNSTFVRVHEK
# B1: VEGF-165 (protein)
# chain: MTDRQTDTAPSPSYHLLPGRRRTVDAAASRGQGPEPAPGGGVEGVGARGVALKLFVQLLGCSRFGGAVVRAGEAEPSGAARSASSGREEPQPEEGEEEEEKEEERGPQWRLGARKPGSWTGEAAVCADSAPAARAPQALARASGRGGRVARRGAEESGPPHSPSRRGSASRAGPGRASETMNFLLSWVHWSLALLLYLHHAKWSQAAPMAEGGGQNHHEVVKFMDVYQRSYCHPIETLVDIFQEYPDEIEYIFKPSCVPLMRCGGCCNDEGLECVPTEESNITMQIMRIKPHQGQHIGEMSFLQHNKCECRPKKDRARQEKKSVRGKGKGQKRKRKKSRYKSWSVPCGPCSERRKHLFVQDPQTCKCSCKNTDSRCKARQLELNERTCRCDKPRR
# Target: T1, VEGFR-2-Fc domain 1&2&3
# Test: biolayer interferometry
row,Binder,Kd
1,Ac-ESNITMQIMRIKPHQGQHIGEMSFLQHMK-NH2 [VEGF73-101],~124 µM
2,B1,0.0035 µM
